Assay results taken from the supplement of paper PMC10567573.
± gives the standard deviation.

Experiment: protein stability index of a GFP-peptide fusion (GPS, HEK-293T) (PSI 1-6); higher = more stable
Settings: c terminus: a fixed tail appended
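Also: 24-mer peptide tiles fused after GFP, lentivirally expressed, FACS-sorted into six equal bins by GFP/DsRed ratio, decoded by Illumina sequencing, PSI is the read-weighted mean bin number.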

| Sequence | protein stability index (treatment: DMSO) | protein stability index (treatment: MLN4924 1 uM, 8 h) |
| --- | --- | --- |
| LPQEHSQIYHCTKRKEEECSTTDH [TBX5] | 5.39 ± 0.21 | 5.49 ± 0.11 |
| HERGLKLHQTIYNQACKLLSDDYE [INTS4] | 3.18 ± 0.32 | 3.47 ± 0.47 |
| AYNHRTDLFKSFPGPMDWVPRYTG [ADAMTS4] | 2.89 ± 0.14 | 2.82 ± 0.11 |
| RDFHRKILTLPEMMRMFSENLAHH [TRIM15] | 2.25 ± 0.17 | 2.31 ± 0.051 |
| LGQQQRDMRRDEEGSLCAAHLPKA [FBF1] | 4.97 ± 0.35 | 5.11 ± 0.16 |
| LVQLRGRLTSQDWERVHLIVAGGY [ALG2] | 2.03 ± 0.62 | 2.44 ± 0.58 |
| KVYPVQEALAVLEPYARLPPHKHV [TRIB3] | 3.02 ± 0.26 | 3.09 ± 0.15 |
| VNGDGSRENGNNSSDKVRGIETLE [PHTF1] | 5.24 ± 0.32 | 5.22 ± 0.28 |
| ALSEQKAQDLGELLATAEQEQLSL [LRRC45] | 5.07 ± 0.36 | 5.27 ± 0.1 |
| GTLGSCSSSSECLEDSTMGSVADT [PLK2] | 5.36 ± 0.11 | 5.28 ± 0.15 |
| RSDVEKGGKIIMPPSALDQLSRLN [UFD1] | 3.55 ± 0.41 | 3.97 ± 0.28 |
| PAIVEAGGMQALGLHLTDPSQRLV [CTNNB1] | 3.79 ± 0.23 | 3.83 ± 0.15 |
| PSRGHAYRDYGHSRRDESYSRGYR [RBMY1A1] | 4.42 ± 0.13 | 4.34 ± 0.26 |
| LFAPTLIYRDSYPRNPTVRWGYVA [SOAT1] | 2.44 ± 0.55 | 2.06 ± 0.35 |
| SQVSWEQDLKLFLQEPGVFSPTPP [FCHSD1] | 3.36 ± 0.4 | 3.61 ± 0.1 |
| APYFERSSSKRYTMSRSLDGASVN [EPB41L3] | 3.3 ± 0.33 | 3.44 ± 0.7 |
| LEVERQENEQRRLFIQKEEQLQQI [MNAT1] | 4.6 ± 0.36 | 4.64 ± 0.17 |
| RNRPKSTVNTHYFSIDEELVYENF [CDC14A] | 2.99 ± 0.37 | 3.39 ± 0.38 |
| RPPFGAAAVPGTQLSPSPTPASQS [SNAP91] | 4.79 ± 0.16 | 4.86 ± 0.055 |
| QAIVTEDKTDISSGRARQQDEEML [MLH1] | 5.23 ± 0.22 | 5.38 ± 0.14 |
| SQSLWNRLSVLLNLLPAAGELQES [SMG5] | 2.75 ± 0.37 | 2.25 ± 0.18 |
| SVVDHPMPEERASKYENYFSASER [HESX1] | 4.73 ± 0.37 | 4.76 ± 0.17 |
| TLDQTTSEEAPGGTELIQTPLASS [HDAC6] | 5.52 ± 0.22 | 5.49 ± 0.26 |

| Sequence | protein stability index (treatment: DMSO) | protein stability index (treatment: MLN4924 1 uM, 8 h) |
| --- | --- | --- |
| LWSLFVPFTVYQVRWLRPVHRQLG [AUP1] | 2.82 ± 0.59 | 2.59 ± 0.69 |
| IKQDINSLNKQIAQLQDFVRAKGS [STX5] | 3.25 ± 0.12 | 3.38 ± 0.28 |
| GSVPLPESTRELGELLGEARYYLV [KCTD13] | 2.11 ± 0.36 | 2.35 ± 0.32 |
| VPRAGPLTVNTEAQQLLREFEEAT [FOXJ1] | 4.96 ± 0.19 | 4.9 ± 0.26 |
| VDLSRILNEMRDQYEKMAEKNRKD [KRT17] | 3.52 ± 0.24 | 3.76 ± 0.36 |
| TMLAGHYPFQDSEPVLLFGKIRRG [TRIB3] | 2.56 ± 0.16 | 2.77 ± 0.25 |
| SPEIMASVLNGKFANLIKEFVIID [CDC25A] | 2.47 ± 0.29 | 2.23 ± 0.19 |
| FAVLHWKPPQNPVDTYDVQVTAPG [TNXB] | 2.76 ± 0.25 | 2.68 ± 0.46 |
| DFLAEKESLTEDEATQFLKQILDG [DAPK3] | 4.4 ± 0.55 |  |
| ADDPDDGPVPGTPGLPGSTGNPKS [SPNS1] | 5.47 ± 0.39 | 5.49 ± 0.35 |
| CCQWLKPKMRSKEQILELLVLEQF [ZNF449] | 2.46 ± 0.51 | 2.46 ± 0.52 |
| LNDAKRELRFLLVYLHGDDHQDSD [FAF2] | 2.31 ± 0.36 | 2.23 ± 0.25 |
| RSLQLRIQELELQAQIHGLPVPPT [TFE3] | 3.01 ± 0.19 | 2.89 ± 0.21 |
| EEQSDQSFSSLEPDNEQLMEEVIS [IQUB] | 5.34 ± 0.27 | 5.61 ± 0.18 |
| GAAVVRPPGHHAEQDAACGFCFFN [HDAC6] | 3.14 ± 0.36 | 3.26 ± 0.25 |
| FDVGGQRSERKKWIHCFEGVTAII [GNAI1] | 2.29 ± 0.44 | 1.95 ± 0.37 |
| PVEYRSDVNSFVTECEPSELFQLQ [CDS1] | 4.5 ± 0.36 | 4.55 ± 0.18 |
| NLSLVCLPRSEDDDCDDDDDDAQI [DRICH1] | 5.42 ± 0.28 | 5.5 ± 0.26 |
| NVDDPTGAHSNAPITAHAEVEVVE [CSNK1G1] | 5.35 ± 0.61 | 5.39 ± 0.47 |
| SYQEEAAMELKVEDPFYWVSPGVL [MOG] | 3.25 ± 0.5 | 3.28 ± 0.13 |
| MERVNETVVREVIFLGFSSLARLQ [OR10K2] | 2.64 ± 0.65 | 2.4 ± 0.5 |
| EMKLQKNFLTQRENTIAGANHTHT [C10orf62] | 3.78 ± 0.44 | 3.65 ± 0.4 |
| DRLQVFHKRAIMPYGVYKKQQKDP [ATE1] | 3.17 ± 0.39 | 3.34 ± 0.22 |

| Sequence | protein stability index (treatment: DMSO) | protein stability index (treatment: MLN4924 1 uM, 8 h) |
| --- | --- | --- |
| GLLQGTSAETSGGLLICLPREQAA [SEPHS2] | 3.07 ± 0.16 | 3.29 ± 0.18 |
| GALEALELSPPLSPASHVDVDLTI [FOXJ1] | 3.17 ± 0.23 | 3.43 ± 0.36 |
| DDGYSTKDSYSSRDYPSSRDTRDY [RBMX] | 4.9 ± 0.25 | 4.77 ± 0.081 |
| IDKNRRKSCQACRLRKCYEVGMVK [ESR2] | 2.75 ± 0.34 | 3.08 ± 0.17 |
| AERYGLSGSDVLDNVAYARAFNTD [RAD51] | 3.99 ± 0.2 | 4.07 ± 0.32 |
| AKKKRLTKADIGTPSNFQHIGHVG [WASL] | 3.52 ± 0.3 | 3.67 ± 0.18 |
| LLEDARRKGMPFAQWDGPTVVSWL [PPFIA4] | 2.11 ± 0.15 | 2.01 ± 0.33 |
| SEEIRFYQLGEEAMEKFREDEGFL [KCNA3] | 4.37 ± 0.27 | 4.44 ± 0.12 |
| ASDMFRRLRDAGFRVTLWVHPFVN [MYORG] | 2.23 ± 0.17 | 2.13 ± 0.053 |
| LTPGFSDNAIMLFSPDFTLRNTLK [FAN1] | 2.4 ± 0.3 | 2.65 ± 0.54 |
| ICDKHWTAKNSRVVCGMFGFPGER [LOXL2] | 2.42 ± 0.34 | 2.42 ± 0.35 |
| LTICYPEYAGSNTYEEAAAYIQCQ [GNAI1] | 2.46 ± 0.25 | 2.43 ± 0.46 |
| NKTQQVIHIIDFGLAKEYIDPETK [CSNK1G3] | 2.48 ± 0.52 | 2.47 ± 0.41 |
| LQSYQAEIIELRRTVNALEIELQA [KRT33B] | 2.59 ± 0.54 | 2.27 ± 0.3 |
| TGEKPYQCNICGKCFSCNSNLHRH [ZNF263] | 4.03 ± 0.2 | 4.52 ± 0.26 |
| KPGKGADLSKPPCRKAKEIRKERK [ATE1] | 4.65 ± 0.44 | 5.04 ± 0.3 |
| GLQHAPEPDAADGPYDPNSVRISF [SMAD6] | 4.24 ± 0.38 | 4.49 ± 0.27 |
| LSRCEFQRAKCKDPQLEIAYRGNC [SMOC2] | 3.23 ± 0.42 | 3.14 ± 0.23 |
| LGRSHDTVQEAATSRRARASKKTA [MFSD9] | 5.2 ± 0.21 | 5.31 ± 0.16 |
| SLKLASSELERLIVPNSNGVITTT [JUNB] | 3.24 ± 0.41 | 3.4 ± 0.54 |
| LLRHQRIHTGERPYKCPECGKSFS [ZNF263] | 2.71 ± 0.47 | 3.58 ± 0.47 |
| QPIHLWQFLKELLLKPHSYGRFIR [SPDEF] | 2.69 ± 0.13 | 2.65 ± 0.19 |
| VCEVQVHGGSLLGKKYNWSCDDLM [GFOD1] | 2.58 ± 0.16 | 2.35 ± 0.32 |

| Sequence | protein stability index (treatment: DMSO) | protein stability index (treatment: MLN4924 1 uM, 8 h) |
| --- | --- | --- |
| QGTARTLSPVLESPRDLQFSEIRE [TNXB] | 4.64 ± 0.16 | 4.78 ± 0.18 |
| DLKPENIMLLDKNVPNPRIKLIDF [DAPK3] | 2.79 ± 0.084 | 2.93 ± 0.21 |
| DILEVKRLLDHQDNILSLINVNDL [WDR41] | 2.24 ± 0.4 | 2.22 ± 0.25 |
| SYWEDLRKQARQLENELDLKLVSF [GOSR1] | 2.37 ± 0.24 | 2.57 ± 0.2 |
| IQSKLGIVSLLLGTIHALIFAWNK [STEAP1] | 2.35 ± 0.31 | 2.22 ± 0.31 |
| HLQHKLICTRKPEEIRGGGLLKYC [TENT5D] | 2.21 ± 0.39 | 2.88 ± 0.095 |
| LGYAVSTFAMVKGYFFPTSARDCK [DHCR7] | 2.09 ± 0.11 | 2.09 ± 0.13 |
| IFSAPNYCYRCGNQAAIMELDDTL [PPP2CA] | 2.37 ± 0.6 | 2.29 ± 0.4 |
| EVKIRDWHLKQSPASPERDYSPYY [KRT13] | 3.34 ± 0.38 | 3.35 ± 0.47 |
| PGSILYSSSGDLADLENEDIFPEL [DLC1] | 4.69 ± 0.14 | 4.77 ± 0.32 |
| EKKRKEEEERRRREEEERERLQKE [ACBD3] | 5.45 ± 0.36 | 5.49 ± 0.25 |
| KDGVADSTVISSMPCLLMELRRDS [C18orf25] | 3.25 ± 0.15 | 3.42 ± 0.35 |
| CLSTWLLHFIATNYLIFSQKPEFQ [RHOBTB3] | 3.09 ± 0.19 | 3.22 ± 0.2 |
| GISGTTTKKGDLQWNAGEKKLTGG [SNAP91] | 4.43 ± 0.077 | 4.86 ± 0.41 |
| NQHCLDTAFNFFKMAVSRHLTRGR [BRF1] | 2.19 ± 0.12 | 2.25 ± 0.22 |
| KRYAGREEHWVGLKKEPGHPWKWS [CD69] | 2.76 ± 0.22 | 2.83 ± 0.2 |
| NAAYFVGKWMKKFPESETKECPFR [SERPINB5] | 2.77 ± 0.29 | 2.98 ± 0.47 |
| TYPFLAMIMLKDRRMTVVGRLEGL [FAF2] | 2.66 ± 0.76 | 2.57 ± 0.46 |
| VRCGLLGSLGPVPVLRFDALWQVL [TRIM14] | 2.29 ± 0.39 | 2.29 ± 0.49 |
| QAGPSPAPPTPPEEEDLRRRLKYF [MCOLN1] | 4.91 ± 0.14 | 4.99 ± 0.17 |
| NFSQPVAGRPSLLRHDEVRTYFHE [NLN] | 3.36 ± 0.61 | 3.33 ± 0.31 |
